Legend:
Cynomolgus Serum Albumin = target: T1, Cynomolgus Serum Albumin (cynomolgus monkey, UniProt A2V9Z4 25-608); assay: IMAC pull-down from normal serum, SDS-PAGE with Coomassie stain
T1 construct: also called Macaca Fascicularis (cynomolgus monkey) serum albumin
Method: (§1) To evaluate the functionality of binders, selected FN3 domains were tested for their ability to complex with endogenous albumin in normal serum. To ensure that albumin binding was preserved when selected FN3 domains were attached at either the amino or carboxy terminus of another FN3 domain, bivalent FN3 genes were prepared to generate constructs ALB18, ALB 30, ALB 21, ALB33, ALB34 and ALB35 (Table 6).
(§2) C-terminally His6-tagged (SEQ ID NO: 72) bivalent FN3 domains (0.25-2.0 mg/mL in DPBS without calcium or magnesium) were mixed in a 1:1 volumetric ratio with normal serum and incubated for 1 hour at room temperature to allow binding to endogenous albumin in the serum. His6-tagged (SEQ ID NO: 72) FN3 domain-albumin complexes were recovered from serum via immobilized metal affinity chromatography (IMAC) using 200+ PhyTip columns containing a 5 μL resin bed (PureSpeed™ Protein Tip IMAC from Rainin Instrument LLC; Oakland, Calif.) pre-equilibrated with 50 mM Tris, pH 7.0 containing 500 mM NaCl and 10 mM imidazole. Unbound serum proteins were removed by exhaustively washing the resin with equilibration buffer. Bound protein was eluted with 25-100 μL of elution buffer (50 mM Tris, pH 7.0 containing 500 mM NaCl and 250 mM imidazole, pH 7.5). Eluates were analyzed by SDS-PAGE for the co-precipitation of albumin. SDS-PAGE gels were stained with colloidal Coomassie. […]

Human Serum Albumin = target: T2, Human Serum Albumin (human, UniProt P02768 25-609); assay: as above
T2 construct: also called HSA
T2 sequence (P02768 25-609 limits assumed): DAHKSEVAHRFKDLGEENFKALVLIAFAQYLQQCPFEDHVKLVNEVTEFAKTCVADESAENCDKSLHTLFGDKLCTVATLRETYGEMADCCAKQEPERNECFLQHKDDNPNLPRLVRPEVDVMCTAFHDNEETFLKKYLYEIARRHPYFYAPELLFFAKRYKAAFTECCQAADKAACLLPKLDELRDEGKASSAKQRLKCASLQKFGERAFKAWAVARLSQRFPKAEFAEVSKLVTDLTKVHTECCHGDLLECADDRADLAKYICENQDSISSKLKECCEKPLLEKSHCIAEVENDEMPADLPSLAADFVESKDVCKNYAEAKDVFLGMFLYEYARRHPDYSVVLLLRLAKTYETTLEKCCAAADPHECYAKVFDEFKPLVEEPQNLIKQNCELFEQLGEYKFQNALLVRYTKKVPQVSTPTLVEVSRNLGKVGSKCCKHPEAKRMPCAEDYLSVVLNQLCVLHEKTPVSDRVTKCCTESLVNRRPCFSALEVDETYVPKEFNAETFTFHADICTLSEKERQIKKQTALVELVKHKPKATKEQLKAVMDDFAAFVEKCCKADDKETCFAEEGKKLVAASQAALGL
Method: as §1, §2

T1 sequence (A2V9Z4 25-608 limits assumed): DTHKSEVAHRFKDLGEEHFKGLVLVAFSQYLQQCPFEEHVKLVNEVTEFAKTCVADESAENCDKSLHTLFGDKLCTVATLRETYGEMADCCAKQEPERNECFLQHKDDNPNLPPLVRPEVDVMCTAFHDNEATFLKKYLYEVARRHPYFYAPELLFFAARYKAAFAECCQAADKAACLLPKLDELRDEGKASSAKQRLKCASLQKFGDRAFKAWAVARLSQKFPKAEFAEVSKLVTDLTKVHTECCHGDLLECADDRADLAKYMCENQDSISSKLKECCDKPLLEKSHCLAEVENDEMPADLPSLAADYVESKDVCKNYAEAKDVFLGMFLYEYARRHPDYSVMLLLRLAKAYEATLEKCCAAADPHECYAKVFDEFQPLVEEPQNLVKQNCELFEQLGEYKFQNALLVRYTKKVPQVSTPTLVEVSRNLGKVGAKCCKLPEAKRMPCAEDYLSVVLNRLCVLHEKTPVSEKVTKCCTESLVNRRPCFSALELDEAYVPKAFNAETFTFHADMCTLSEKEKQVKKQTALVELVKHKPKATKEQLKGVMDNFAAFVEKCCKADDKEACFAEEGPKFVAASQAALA

B1: Tencon25 (designed binder)
chain: LPAPKNLVVSEVTEDSARLSWTAPDAAFDSFLIQYQESEKVGEAIVLTVPGSERSYDLTGLKPGTEYTVSIYGVKGGHRSNPLSAIFTT
notes: Negative control of the pull-down; also called Tc25; TC25
binding result (Cynomolgus Serum Albumin): no binding
binding result (Human Serum Albumin): no binding
